{"source": "patent US12195506B2", "about": "“Immunotherapy with A*01 restricted peptides and combination of peptides against cancers and related methods” (Immatics Biotechnologies GmbH, priority 2018, dated 2025)", "data": [{"biological_target": "HLA-A*01:01 (Homo sapiens, UniProt P04439, A114D/A174V/A182V/D101N/D185E/E176A/E190D/L180R/Q94H/R68K/S129P/T187R/V100A/V91M/W191G)", "experiment": "MHC binding assay: UV-ligand exchange, ELISA of stabilized MHC complexes (peptide exchange yield)", "details": "binding to HLA-A*01:01, UV-ligand exchange", "excerpt": "Candidate peptides for T cell based therapies according to the present invention were further tested for their MHC binding capacity (affinity). The individual peptide-MHC complexes were produced by UV-ligand exchange, where a UV-sensitive peptide is cleaved upon UV-irradiation and exchanged with the peptide of interest as analyzed. Only peptide candidates that can effectively bind and stabilize the peptide-receptive MHC molecules prevent dissociation of the MHC complexes. To determine the yield of the exchange reaction, an ELISA was performed based on the detection of the light chain (β2m) of stabilized MHC complexes. The assay was performed as generally described in Rodenko et al. (Rodenko et al., 2006)\n96 well MAXISorp plates (NUNC) were coated over night with 2 ug/ml streptavidin in PBS at room temperature, washed 4× and blocked for 1 h at 37° C. in 2% BSA containing blocking buffer. Refolded HLA-A*02:01/MLA-001 monomers served as standards, covering the range of 15-500 ng/ml. Peptide-MHC monomers of the UV-exchange reaction were diluted 100-fold in blocking buffer. Samples were incubated for 1 h at 37° C., washed four times, incubated with 2 ug/ml HRP conjugated anti-β2m for 1 h at 37° C., washed again and detected with TMB solution that is stopped with […]. Absorption was measured at 450 nm.", "values": [{"substance": "182 (TQPELSSRY; listed as Homo sapiens) [compound 182]", "Peptide exchange": "++ (>20% = ++)"}, {"substance": "183 (LADTDLGMTF; listed as Homo sapiens) [compound 183]", "Peptide exchange": "++ (>20% = ++)"}, {"substance": "184 (KTIQEVAGY; listed as Homo sapiens) [compound 184]", "Peptide exchange": "++ (>20% = ++)"}, {"substance": "185 (NSDESADSEPHKY; listed as Homo sapiens) [compound 185]", "Peptide exchange": "++++ (>75% = ++++)"}, {"substance": "186 (AVSSGLFFY; listed as Homo sapiens) [compound 186]", "Peptide exchange": "++ (>20% = ++)"}, {"substance": "187 (TQKSVQVLAY; listed as Homo sapiens) [compound 187]", "Peptide exchange": "++ (>20% = ++)"}, {"substance": "188 (DIPDYLLQY; listed as Homo sapiens) [compound 188]", "Peptide exchange": "+++ (>50 = +++)"}, {"substance": "189 (FRGVFVHRY; listed as Homo sapiens) [compound 189]", "Peptide exchange": "++ (>20% = ++)"}, {"substance": "190 (VSSTVHNLY; listed as Homo sapiens) [compound 190]", "Peptide exchange": "++++ (>75% = ++++)"}, {"substance": "191 (FTRAFDQLRM; listed as Homo sapiens) [compound 191]", "Peptide exchange": "+++ (>50 = +++)"}, {"substance": "192 (LAFYYGMY; listed as Homo sapiens) [compound 192]", "Peptide exchange": "++ (>20% = ++)"}, {"substance": "193 (SQNGQLIHY; listed as Homo sapiens) [compound 193]", "Peptide exchange": "+++ (>50 = +++)"}, {"substance": "194 (CYTADNEMGY; listed as Homo sapiens) [compound 194]", "Peptide exchange": "+++ (>50 = +++)"}, {"substance": "195 (YTADNEMGYY; listed as Homo sapiens) [compound 195]", "Peptide exchange": "+++ (>50 = +++)"}, {"substance": "196 (RLAQYTIERY; listed as Homo sapiens) [compound 196]", "Peptide exchange": "++ (>20% = ++)"}, {"substance": "197 (NDEIDKLTGY; listed as Homo sapiens) [compound 197]", "Peptide exchange": "++++ (>75% = ++++)"}, {"substance": "198 (KLTDYINANY; listed as Homo sapiens) [compound 198]", "Peptide exchange": "++ (>20% = ++)"}, {"substance": "199 (LCAAVLAKY; listed as Homo sapiens) [compound 199]", "Peptide exchange": "++ (>20% = ++)"}, {"substance": "200 (SLPEFGLTY; listed as Homo sapiens) [compound 200]", "Peptide exchange": "++ (>20% = ++)"}, {"substance": "201 (SLPEFGLTYY; listed as Homo sapiens) [compound 201]", "Peptide exchange": "++ (>20% = ++)"}, {"substance": "202 (QTDINGGSLK; listed as Homo sapiens) [compound 202]", "Peptide exchange": "+++ (>50 = +++)"}, {"substance": "203 (LSQDELSKF; listed as Homo sapiens) [compound 203]", "Peptide exchange": "++ (>20% = ++)"}, {"substance": "204 (NVKEAPTEY; listed as Homo sapiens) [compound 204]", "Peptide exchange": "++ (>20% = ++)"}, {"substance": "205 (RMQEGSEVY; listed as Homo sapiens) [compound 205]", "Peptide exchange": "++ (>20% = ++)"}, {"substance": "207 (LLEGEDAHLTQY; listed as Homo sapiens) [compound 207]", "Peptide exchange": "+++ (>50 = +++)"}, {"substance": "208 (LLISKAEDY; listed as Homo sapiens) [compound 208]", "Peptide exchange": "++ (>20% = ++)"}, {"substance": "209 (EADPFLKYL; listed as Homo sapiens) [compound 209]", "Peptide exchange": "++ (>20% = ++)"}, {"substance": "210 (LLEADPFLKY; listed as Homo sapiens) [compound 210]", "Peptide exchange": "++++ (>75% = ++++)"}, {"substance": "211 (YLNEWGSRF; listed as Homo sapiens) [compound 211]", "Peptide exchange": "++ (>20% = ++)"}, {"substance": "212 (MMTDLTSVY; listed as Homo sapiens) [compound 212]", "Peptide exchange": "+++ (>50 = +++)"}, {"substance": "213 (VSDSTTEITY; listed as Homo sapiens) [compound 213]", "Peptide exchange": "+++ (>50 = +++)"}, {"substance": "214 (VQDPSLPVY; listed as Homo sapiens) [compound 214]", "Peptide exchange": "++ (>20% = ++)"}, {"substance": "215 (DTLEAATSLY; listed as Homo sapiens) [compound 215]", "Peptide exchange": "++ (>20% = ++)"}, {"substance": "216 (NSMLDPLVY; listed as Homo sapiens) [compound 216]", "Peptide exchange": "++++ (>75% = ++++)"}, {"substance": "217 (LMDEGAVLTL; listed as Homo sapiens) [compound 217]", "Peptide exchange": "++ (>20% = ++)"}, {"substance": "218 (FTAQLQLY; listed as Homo sapiens) [compound 218]", "Peptide exchange": "+++ (>50 = +++)"}, {"substance": "219 (KTELETALYY; listed as Homo sapiens) [compound 219]", "Peptide exchange": "+++ (>50 = +++)"}, {"substance": "220 (DVERIKDTY; listed as Homo sapiens) [compound 220]", "Peptide exchange": "++ (>20% = ++)"}, {"substance": "221 (TDVERIKDTY; listed as Homo sapiens) [compound 221]", "Peptide exchange": "+++ (>50 = +++)"}, {"substance": "222 (GSPDAVVSY; listed as Homo sapiens) [compound 222]", "Peptide exchange": "+ (>10% =+)"}, {"substance": "223 (NAVDVVPSSF; listed as Homo sapiens) [compound 223]", "Peptide exchange": "+ (>10% =+)"}, {"substance": "224 (RTDEGDNRVW; listed as Homo sapiens) [compound 224]", "Peptide exchange": "++ (>20% = ++)"}, {"substance": "225 (STDPNIVRK; listed as Homo sapiens) [compound 225]", "Peptide exchange": "+++ (>50 = +++)"}, {"substance": "226 (QITPKHNGLY; listed as Homo sapiens) [compound 226]", "Peptide exchange": "++ (>20% = ++)"}, {"substance": "227 (ESAPKEVSRY; listed as Homo sapiens) [compound 227]", "Peptide exchange": "++ (>20% = ++)"}, {"substance": "228 (KSFDDIAKY; listed as Homo sapiens) [compound 228]", "Peptide exchange": "++ (>20% = ++)"}, {"substance": "229 (MTDVFIDY; listed as Homo sapiens) [compound 229]", "Peptide exchange": "+++ (>50 = +++)"}, {"substance": "230 (CVIETFHKY; listed as Homo sapiens) [compound 230]", "Peptide exchange": "+++ (>50 = +++)"}, {"substance": "231 (LLPLLVMAY; listed as Homo sapiens) [compound 231]", "Peptide exchange": "++ (>20% = ++)"}, {"substance": "232 (RYLNIVHATQLY; listed as Homo sapiens) [compound 232]", "Peptide exchange": "++ (>20% = ++)"}, {"substance": "233 (RINSATGQY; listed as Homo sapiens) [compound 233]", "Peptide exchange": "++ (>20% = ++)"}, {"substance": "234 (YTDLTTIQV; listed as Homo sapiens) [compound 234]", "Peptide exchange": "++++ (>75% = ++++)"}, {"substance": "235 (SIEIDHTQY; listed as Homo sapiens) [compound 235]", "Peptide exchange": "++ (>20% = ++)"}, {"substance": "236 (VLDSLLAQY; listed as Homo sapiens) [compound 236]", "Peptide exchange": "++++ (>75% = ++++)"}, {"substance": "237 (AQEAAVFLTLY; listed as Homo sapiens) [compound 237]", "Peptide exchange": "+++ (>50 = +++)"}, {"substance": "238 (ETDWGLLKGHTY; listed as Homo sapiens) [compound 238]", "Peptide exchange": "++++ (>75% = ++++)"}, {"substance": "239 (SSERGSPIEKY; listed as Homo sapiens) [compound 239]", "Peptide exchange": "+++ (>50 = +++)"}, {"substance": "240 (EVLDSLLAQY; listed as Homo sapiens) [compound 240]", "Peptide exchange": "++ (>20% = ++)"}, {"substance": "241 (SLMVASLTY; listed as Homo sapiens) [compound 241]", "Peptide exchange": "++ (>20% = ++)"}, {"substance": "242 (GTNLPTLLW; listed as Homo sapiens) [compound 242]", "Peptide exchange": "+ (>10% =+)"}, {"substance": "243 (LTSEDTGAY; listed as Homo sapiens) [compound 243]", "Peptide exchange": "+++ (>50 = +++)"}, {"substance": "244 (VTKYIAGPY; listed as Homo sapiens) [compound 244]", "Peptide exchange": "++ (>20% = ++)"}, {"substance": "245 (LSDNAANRY; listed as Homo sapiens) [compound 245]", "Peptide exchange": "+++ (>50 = +++)"}, {"substance": "246 (ARLEGEIATY; listed as Homo sapiens) [compound 246]", "Peptide exchange": "++ (>20% = ++)"}, {"substance": "247 (SMIRVGTNY; listed as Homo sapiens) [compound 247]", "Peptide exchange": "++ (>20% = ++)"}, {"substance": "248 (VTDIDELGK; listed as Homo sapiens) [compound 248]", "Peptide exchange": "+++ (>50 = +++)"}, {"substance": "249 (GVGFTELEY; listed as Homo sapiens) [compound 249]", "Peptide exchange": "+++ (>50 = +++)"}, {"substance": "250 (GYVCNACGLY; listed as Homo sapiens) [compound 250]", "Peptide exchange": "++ (>20% = ++)"}, {"substance": "251 (GIEMTYETY; listed as Homo sapiens) [compound 251]", "Peptide exchange": "++ (>20% = ++)"}, {"substance": "252 (DTTSHTYLQY; listed as Homo sapiens) [compound 252]", "Peptide exchange": "++ (>20% = ++)"}, {"substance": "253 (YLESHGLAY; listed as Homo sapiens) [compound 253]", "Peptide exchange": "++++ (>75% = ++++)"}, {"substance": "254 (FLFNDALLY; listed as Homo sapiens) [compound 254]", "Peptide exchange": "++++ (>75% = ++++)"}, {"substance": "255 (WELDSLEY; listed as Homo sapiens) [compound 255]", "Peptide exchange": "++ (>20% = ++)"}, {"substance": "256 (HAFESNNFIY; listed as Homo sapiens) [compound 256]", "Peptide exchange": "++ (>20% = ++)"}]}]}
